Source: publication PMC12173652

Target: epidermal growth factor receptor (EGFR) (human (endogenous in HeLa)) (UniProt P00533)

## pIII::EGF fusion displayed on the helper phage M13SW7-EGF (epidermal growth factor, GGGS linker, M13 minor coat protein pIII) (from UniProt P69168 19-424)
  fold difference in luciferase expression (EGF^+/EGF^−), A549, mini phagemid, +TurboFect, 96 h: 9.96 fold
  fold difference in luciferase expression (EGF^+/EGF^−), HeLa, full phagemid, +TurboFect, 96 h: 261 fold
  fold difference in luciferase expression (EGF^+/EGF^−), HeLa, mini phagemid, +TurboFect, 96 h: 705 fold
  fold difference in luciferase expression (EGF^+/EGF^−), HeLa, mini phagemid, −TurboFect, 96 h: 25.6 fold
  fold difference in luciferase expression (EGF^+/EGF^−), MRC-5, full phagemid, −TurboFect, 96 h: 4.14 fold
  fold difference in luciferase expression (EGF^+/EGF^−), MRC-5, mini phagemid, +TurboFect, 96 h: 5.73 fold
